According to the supplement of paper PMC12042874:
± gives the uncertainty stated by the source.

assay: amyloid nucleation score (Sup35N fusion, yeast selection) (log enrichment); library NNK2; higher = more nucleation; inactive = no reads after selection
How it was run: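 Growth for 7 days at 30°C on medium lacking adenine and uracil followed a 24-hour induction with 100 μM copper sulfate of psi-negative yeast expressing peptides of 20 random codons fused to Sup35N. Input and output plasmid inserts were sequenced with Illumina, and sequences with under 100 input reads were excluded. Nucleation score is the DiMSum log enrichment of output over input reads, centred on the mode score of non-aggregating sequences.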

**Q.** For ICQCPVNTANTQLGVGTRLK, which amyloid nucleation score is on record?
**A.** 0.114 ± 0.5

**Q.** With SVLLWWTHMYGLRMMKGVWG as the substance, how does the amyloid nucleation score read?
**A.** 0.433 ± 0.15

**Q.** With YFNGERFTRFISMEE as the substance, how does the amyloid nucleation score read?
**A.** -1.21 ± 1.1

**Q.** For GDKCGFCKNAGPGVKVS, which amyloid nucleation score is on record?
**A.** -0.807 ± 0.79

**Q.** For GWCRYLKDLYI, which amyloid nucleation score is on record?
**A.** -1.1 ± 0.36

**Q.** For EMSVRPGVSRKIWS, which amyloid nucleation score is on record?
**A.** 0.43 ± 0.49

**Q.** For GDNYIS, which amyloid nucleation score is on record?
**A.** 0.782 ± 0.41

**Q.** For NDHSVHINYLIIGAIHNTVN, which amyloid nucleation score is on record?
**A.** 8.405 ± 0.065

**Q.** Which amyloid nucleation score does the source give for TIENLNLFWF here?
**A.** 5.73 ± 0.06

**Q.** For VLGYPKTSTVHALPHTTMLP, which amyloid nucleation score is on record?
**A.** 0.943 ± 0.53

**Q.** For IRHNVKRLGATNVW, which amyloid nucleation score is on record?
**A.** -0.09 ± 0.76

**Q.** With VWKNPYIGVHLLHDLKS as the substance, how does the amyloid nucleation score read?
**A.** -0.391 ± 0.21

**Q.** For DFFVLVGYGKVK, which amyloid nucleation score is on record?
**A.** 0.595 ± 0.53

**Q.** Which amyloid nucleation score does the source give for DFCCWCPFCYVSWYEGIVMI here?
**A.** 0.305 ± 1

**Q.** Which amyloid nucleation score does the source give for ALKFHGSNDSRFLI here?
**A.** -0.756 ± 1

**Q.** For APSLIYFNVST, which amyloid nucleation score is on record?
**A.** 3.75 ± 0.13

**Q.** For KVKGLILDHDYRFRI, which amyloid nucleation score is on record?
**A.** inactive

**Q.** Which amyloid nucleation score does the source give for LWITTGNGGVPV here?
**A.** -0.144 ± 0.45

**Q.** Which amyloid nucleation score does the source give for FCMVGLCMCGRQEMCGSTDS here?
**A.** 5.99 ± 0.062

**Q.** Which amyloid nucleation score does the source give for SFSKNALDNRFWGRFSFFFG here?
**A.** 1.3 ± 0.34

**Q.** With RLGWNGE as the substance, how does the amyloid nucleation score read?
**A.** -0.709 ± 0.49

**Q.** Which amyloid nucleation score does the source give for NYTNVRERGYMRVEYDMSIT here?
**A.** 0.202 ± 0.56

**Q.** For HIAID, which amyloid nucleation score is on record?
**A.** 0.401 ± 0.56

**Q.** For LKMCYFLRNKPTQMHVSGVY, which amyloid nucleation score is on record?
**A.** 0.04 ± 0.5

**Q.** Which amyloid nucleation score does the source give for NDRSSDWCCIPSKLRWSRSG here?
**A.** 4.1 ± 0.057

**Q.** With LMHFGMKEEDYWKPCSICIS as the substance, how does the amyloid nucleation score read?
**A.** inactive

**Q.** Which amyloid nucleation score does the source give for CRMHVFVEC here?
**A.** -0.019 ± 0.53

**Q.** With SVKCWRWFGA as the substance, how does the amyloid nucleation score read?
**A.** 1.73 ± 0.27

**Q.** For KISCKKNWGAYVPF, which amyloid nucleation score is on record?
**A.** -0.594 ± 1.1

**Q.** Which amyloid nucleation score does the source give for LFTKRRW here?
**A.** 0.87 ± 0.46

**Q.** For RHTSMSGCMTVIMTGCEIPR, which amyloid nucleation score is on record?
**A.** 1.13 ± 0.39

**Q.** For FLAILWLFMLGKVSGCVDKW, which amyloid nucleation score is on record?
**A.** -0.155 ± 0.49

**Q.** For FEFYLIARIFCPKGLLCESS, which amyloid nucleation score is on record?
**A.** inactive

**Q.** For QILNGSAY, which amyloid nucleation score is on record?
**A.** -0.899 ± 0.3

**Q.** For KRGKMHYCKFAHAAITVTQL, which amyloid nucleation score is on record?
**A.** -0.515 ± 0.43

**Q.** Which amyloid nucleation score does the source give for RFNMMKSKQMELSN here?
**A.** -0.504 ± 0.46

**Q.** With CMSVGGGLHG as the substance, how does the amyloid nucleation score read?
**A.** 3.13 ± 0.071

**Q.** Which amyloid nucleation score does the source give for QDMQLVIYWSYKLYQVFLRA here?
**A.** -0.357 ± 1.1

**Q.** For LTCFSPLVRLEGA, which amyloid nucleation score is on record?
**A.** -0.212 ± 0.49

**Q.** For VEVSECVHVIMYFRISYNKL, which amyloid nucleation score is on record?
**A.** 3.4 ± 0.15

**Q.** Which amyloid nucleation score does the source give for DNGCELPFLFFMFASTVKWS here?
**A.** -0.78 ± 1.1

**Q.** With FNGSYASILKTSNRDTFDAL as the substance, how does the amyloid nucleation score read?
**A.** 0.61 ± 0.15

**Q.** Which amyloid nucleation score does the source give for WHCLLGLNYLFGYVSYSTSW here?
**A.** 4.99 ± 0.098

**Q.** Which amyloid nucleation score does the source give for VGDQF here?
**A.** inactive

**Q.** With TMYVREYSFYFLYNVDITRG as the substance, how does the amyloid nucleation score read?
**A.** 0.649 ± 0.32

**Q.** For WLYSIVCCDRKQSRSGMCDL, which amyloid nucleation score is on record?
**A.** 4.96 ± 0.069

**Q.** With IVVSRMETSIKTCYFVMFHS as the substance, how does the amyloid nucleation score read?
**A.** -0.421 ± 0.38

**Q.** For YMVMA, which amyloid nucleation score is on record?
**A.** -0.67 ± 1.1

**Q.** With KSRFML as the substance, how does the amyloid nucleation score read?
**A.** 0.627 ± 0.57

**Q.** For SLLSPHPLD, which amyloid nucleation score is on record?
**A.** 0.203 ± 0.63

**Q.** For DNQGSLDNSSLCTVYSGFSV, which amyloid nucleation score is on record?
**A.** inactive

**Q.** With ELLQVEYNHHDSKEFMLVMI as the substance, how does the amyloid nucleation score read?
**A.** 0.239 ± 0.43

**Q.** Which amyloid nucleation score does the source give for IKNLRNQGK here?
**A.** -0.745 ± 0.61

**Q.** For GVYPICV, which amyloid nucleation score is on record?
**A.** 0.416 ± 0.49

**Q.** For LGFIHSTG, which amyloid nucleation score is on record?
**A.** inactive

**Q.** With YNQVYES as the substance, how does the amyloid nucleation score read?
**A.** 2.84 ± 0.054

**Q.** With FSSSNSIFKFVLNVRCTGVK as the substance, how does the amyloid nucleation score read?
**A.** 5.045 ± 0.049

**Q.** Which amyloid nucleation score does the source give for YSGLSNLLGKMKRGSSLWVD here?
**A.** inactive

**Q.** Which amyloid nucleation score does the source give for DSSSCYMYLCTGNYPDNFNF here?
**A.** 4.5 ± 0.084

**Q.** Which amyloid nucleation score does the source give for HLEMRPAMRIPLLRTDFWKV here?
**A.** 0.665 ± 0.19

**Q.** With WWYPSGLDCFVVSFFRCHCV as the substance, how does the amyloid nucleation score read?
**A.** -0.107 ± 1

**Q.** Which amyloid nucleation score does the source give for ESADQWAVTMVGRHFYLVLR here?
**A.** 0.294 ± 1.1

**Q.** For DLVSLLSGVFVMFVGLCFEV, which amyloid nucleation score is on record?
**A.** -0.733 ± 1.1

**Q.** For VYPFSLSVAYVNRLLYYTVQ, which amyloid nucleation score is on record?
**A.** 2.14 ± 0.094

**Q.** With DICVKSRRSRPRV as the substance, how does the amyloid nucleation score read?
**A.** 0.591 ± 0.51

**Q.** Which amyloid nucleation score does the source give for SMQFLCYKKLC here?
**A.** -0.565 ± 1.1

**Q.** For LCIEMD, which amyloid nucleation score is on record?
**A.** 0.566 ± 0.38

**Q.** With DRPVCMYNMF as the substance, how does the amyloid nucleation score read?
**A.** 1.63 ± 0.28

**Q.** Which amyloid nucleation score does the source give for QILPWGVSMEKL here?
**A.** -0.492 ± 0.41

**Q.** With LGDLFYYFTVRK as the substance, how does the amyloid nucleation score read?
**A.** 0.389 ± 0.66

**Q.** Which amyloid nucleation score does the source give for TRSPCGRCDSEFLNASLAGL here?
**A.** 0.71 ± 0.36

**Q.** With GFVPGIMEF as the substance, how does the amyloid nucleation score read?
**A.** 0.808 ± 0.52

**Q.** With ETLPLNIILYACGEPHWFLL as the substance, how does the amyloid nucleation score read?
**A.** -0.407 ± 0.29

**Q.** For MFWRITGAI, which amyloid nucleation score is on record?
**A.** 0.402 ± 0.34

**Q.** For IRSNLTKKHLKIL, which amyloid nucleation score is on record?
**A.** -0.994 ± 0.63

**Q.** Which amyloid nucleation score does the source give for YSNSDTAMSLGARLAYGVL here?
**A.** 5.379 ± 0.05

**Q.** Which amyloid nucleation score does the source give for VNIILASMHVLLDGCS here?
**A.** -1.08 ± 0.64

**Q.** For MYEGGSTLW, which amyloid nucleation score is on record?
**A.** -0.441 ± 0.45

**Q.** With LDEPRM as the substance, how does the amyloid nucleation score read?
**A.** 0.16 ± 0.24

**Q.** With YIPMIKL as the substance, how does the amyloid nucleation score read?
**A.** -0.794 ± 0.43

**Q.** With GEDCWRPPVR as the substance, how does the amyloid nucleation score read?
**A.** 0.559 ± 0.5

**Q.** Which amyloid nucleation score does the source give for NWGNDSMRRPCCG here?
**A.** 2 ± 0.088

**Q.** With GMIRLLGLFIKKRWRSNTCL as the substance, how does the amyloid nucleation score read?
**A.** -0.238 ± 0.5

**Q.** With SFYWYRCVDIADSTSKYDGF as the substance, how does the amyloid nucleation score read?
**A.** inactive

**Q.** For VLMEWTLGVTHDNISDDYSD, which amyloid nucleation score is on record?
**A.** 2.58 ± 0.082

**Q.** For RTLWATNVRLKNLHVFIMVM, which amyloid nucleation score is on record?
**A.** 0.147 ± 0.8

**Q.** For GGTVEARSKGILSLSGW, which amyloid nucleation score is on record?
**A.** inactive

**Q.** For YGASRNWQKNSLVASEYQVG, which amyloid nucleation score is on record?
**A.** inactive
